What was measured:
Format in all cases: cell-based
NK cells = experiment: pSTAT5 concentration-response in human LRS-derived PBMC samples (flow cytometry): NK cells; details: Table 4, 45 min
Description: (§1) These studies were performed at PrimityBio LLC (Fremont, Calif.). […] Staining panel for flow cytometry study of LRS-derived PBMC samples include markers for Effector T cells (Teff: CD3+, CD4+, CD8+, CD127+), NK cells (CD3-, CD16+), and Regulatory T cells (Treg: CD3+, CD4+, CD8-, IL-2Rα+, CD127-1).
(§2) The EC50 values (pg/mL) was calculated from dose response curves generated from MFI plots. […]

Treg cells = experiment: pSTAT5 concentration-response in human LRS-derived PBMC samples (flow cytometry): Treg cells; details: Table 4; for EC50 for pSTAT5 signaling, Treg Cells: human LRS samples, 45 min; for CD8/Treg ratio: ratio of pSTAT5 EC50 values
Description: as §1
The EC50 values (pg/mL) was calculated from dose response curves generated from MFI plots.
These studies were performed at PrimityBio LLC (Fremont, Calif.). […] Staining panel for flow cytometry study of LRS-derived PBMC samples include markers CD4, CD4+ memory central, CD4+ memory effect, CD4+ memory T cells, CD4+ Naive T cells, CD4+ T cells, CD8, CD8+ memory central, CD8+ memory effect, CD8+ memory T cells, CD8+ Naive T cells, CD8+ T cells, NK cells, and T regulatory cells.
Conjugates of Table 12 were synthesized by modification of SEQ NO. 1. These studies were performed at PrimityBio LLC (Fremont, Calif.).
The EC50 values (pg/ml) were calculated from dose response curves generated from the MFI plots.

CD8+ T cells = experiment: pSTAT5 concentration-response in human LRS-derived PBMC samples (flow cytometry): CD8+ T cells; details: Table 4, 45 min
Description: as §1, §2

CTLL-2 = CTLL-2 proliferation; details: Table 4
[1] = test system: CD4+ T cells co-cultured with allogeneic monoDC; experiment: Allogeneic human mixed lymphocyte reaction (MLR) assay, IFN-γ secretion; details: single agents, 5 days of co-culture
Text: The allogeneic human mixed lymphocyte reaction (MLR) assay was used to evaluate the ability of Compound B (IL-2_P65[AzK_L1_PEG30kD]-1) to enhance TCR activation as a single agent and in combination with a checkpoint inhibitor (nivolumab or pembrolizumab), as a model for cytolytic response to tumor cells presenting specific antigens or neoantigens.
Peripheral blood mononuclear cells (PBMCs) from two normal, healthy donors were used for each assay run. MonoDCs were generated by culturing monocytes isolated from PBMCs using a negative monocyte selection kit (Stemcell) in vitro for 7 days, involving addition of 1,500 IU/mL of IL-4 and 1,500 IU/mL of GM-CSF. The culture medium was replaced on Days 3 and 5. MonoDCs were collected on Day 7. On that day, CD4+ T cells were isolated from a different donor with a negative selection kit (Stemcell). […] Each run was set up in 3 replicates for each treatment condition. After 5 days of co-culture, IFN-γ secretion in culture supernatants was analyzed employing an enzyme-linked immunosorbent assay (ELISA) kit (Abcam; catalog #Ab46025). Clinical grade nivolumab was used to generate the data shown in FIG. 13, and research grade nivolumab (Selleckchem) was used to generate the data shown in FIG. 14. […] Data shown in FIGS. 12, 13, and 14 represent the mean of 3 replicates standard error of the mean from one donor pair.

Human whole blood = experiment: Whole blood cytokine release assay (MSD U-plex: IFN-γ, IL-4, IL-5, IL-6, IL-8, TNF-α); set-up: unit not given here; details: for IFN-γ level, D1 / IL-6 level, D1 / IL-8 level, D1 / TNF-α level, D1 / IFN-γ level, D2 / IL-6 level, D2 / IL-8 level, D2 / TNF-α level, D2 / IFN-γ level, D3 / IL-6 level, D3 / IL-8 level, D3 / TNF-α level, D3 / IFN-γ level, D4 / IL-6 level, D4 / IL-8 level, D4 / TNF-α level, D4 / IFN-γ level, D5 / IL-6 level, D5 / IL-8 level, D5 / TNF-α level, D5 / IFN-γ level, D6 / IL-6 level, D6 / IL-8 level, D6 / TNF-α level, D6: 24 h, control conditions, conc. ug/ml: IgG4 iso 50, mouse IgG1,κ 100, PEM 90, NIVO 127, coated anti-CD3 100; for IL-4 level / IL-5 level: 90 ug/ml
Description: Cytokines released from the whole blood after treatment into the supernatant were measured using the Meso Scale Discovery (MSD) U-plex kit for six analytes (IFN-γ, IL-4, IL-5, IL-6, IL-8, TNF-α).
Blood in heparin tubes from 6 healthy donors were obtained from The Scripps Research Institute (TSRI; San Diego, Calif.) blood donor service. Samples were tested on the day of the collection; donors 1-3 on one day and donors 4-6 on another day.
A volume of 180 μL of prediluted whole blood was seeded onto a 96-well tissue culture plate. Then, 20 μL of 10× final test concentration of compounds was added to the assay plate. […] In addition, positive and negative controls were included to show the detection and specification of the assay: 100 μg/mL pre-coated Ultra LEAF mouse anti-human CD3 were used as the positive controls for the assay. […] […] No treatment also served as a negative control for the assay.
After adding the compound(s) to the well, the blood was incubated at 37° C. After centrifugation of the samples, supernatant was collected 24 h post treatment and stored at −80° C. before analysis. The human cytokines ([…], TNF-α, IL-8, IL-6, IL-5, IL-4) released from the assay were quantified with the MSD U-plex kit. The detection limit of each plate is reported from the MSD software, Discovery workbench. Each plate has a slightly different detection limit.

F42_30 kD: IL-2 (SEQ ID NO: 4) PEGylated with 30 kD PEG via AzK at F42; presumably SEQ ID NO: 27
EC50 for pSTAT5 signaling, NK Cells (NK cells): 16397 pg/mL | EC50 for pSTAT5 signaling, Treg Cells (Treg cells): 36856 pg/mL | CD8/Treg ratio (Treg cells): 2.9 | EC50 for pSTAT5 signaling, CD8+ T Cells (CD8+ T cells): 107944 pg/mL | EC50, CTLL-2 proliferation (CTLL-2): 123,936 pg/mL

K43_30 kD: IL-2 (SEQ ID NO: 4) PEGylated with 30 kD PEG via AzK at K43; presumably SEQ ID NO: 28
EC50 for pSTAT5 signaling, NK Cells (NK cells): 9004 pg/mL | EC50 for pSTAT5 signaling, Treg Cells (Treg cells): 4797 pg/mL | CD8/Treg ratio (Treg cells): 10.5 | EC50 for pSTAT5 signaling, CD8+ T Cells (CD8+ T cells): 50504 pg/mL

nivolumab [reference compound]
release of IFN-γ [1]: induced the release of IFN-γ in a concentration-dependent manner | IFN-γ level, D1 (Human whole blood; donor D1): 29.77 | IL-6 level, D1 (Human whole blood; donor D1): 1.28 | IL-8 level, D1 (Human whole blood; donor D1): 20.59 | TNF-α level, D1 (Human whole blood; donor D1): 2.35 | IFN-γ level, D2 (Human whole blood; donor D2): 9.34 | IL-6 level, D2 (Human whole blood; donor D2): 0.48 | IL-8 level, D2 (Human whole blood; donor D2): 7.68 | TNF-α level, D2 (Human whole blood; donor D2): 0.44 | IFN-γ level, D3 (Human whole blood; donor D3): 6.61 | IL-6 level, D3 (Human whole blood; donor D3): 1.09 | IL-8 level, D3 (Human whole blood; donor D3): 7.95 | TNF-α level, D3 (Human whole blood; donor D3): 1.33 | IFN-γ level, D4 (Human whole blood; donor D4): 7.56 | IL-6 level, D4 (Human whole blood; donor D4): 0.59 | IL-8 level, D4 (Human whole blood; donor D4): 22.61 | TNF-α level, D4 (Human whole blood; donor D4): 1.21 | IFN-γ level, D5 (Human whole blood; donor D5): 256.75 | IL-6 level, D5 (Human whole blood; donor D5): 3.29 | IL-8 level, D5 (Human whole blood; donor D5): 67.38 | TNF-α level, D5 (Human whole blood; donor D5): 4.89 | IFN-γ level, D6 (Human whole blood; donor D6): 9.51 | IL-6 level, D6 (Human whole blood; donor D6): 0.62 | IL-8 level, D6 (Human whole blood; donor D6): 19.68 | TNF-α level, D6 (Human whole blood; donor D6): BDL

pembrolizumab [reference compound]
release of IFN-γ [1]: induced the release of IFN-γ in a concentration-dependent manner | IL-4 level (Human whole blood; donor D1): 0.10 | IL-5 level (Human whole blood; donor D1): 1.03 | IFN-γ level, D1 (Human whole blood; donor D1): 52.78 | IL-6 level, D1 (Human whole blood; donor D1): 1.09 | IL-8 level, D1 (Human whole blood; donor D1): 22.01 | TNF-α level, D1 (Human whole blood; donor D1): 2.33 | IL-4 level (Human whole blood; donor D2): 0.03 | IL-5 level (Human whole blood; donor D2): 0.72 | IFN-γ level, D2 (Human whole blood; donor D2): 9.62 | IL-6 level, D2 (Human whole blood; donor D2): 0.39 | IL-8 level, D2 (Human whole blood; donor D2): 8.48 | TNF-α level, D2 (Human whole blood; donor D2): 0.68 | IL-4 level (Human whole blood; donor D3): 0.03 | IL-5 level (Human whole blood; donor D3): 0.79 | IFN-γ level, D3 (Human whole blood; donor D3): 8.80 | IL-6 level, D3 (Human whole blood; donor D3): 0.92 | IL-8 level, D3 (Human whole blood; donor D3): 11.36 | TNF-α level, D3 (Human whole blood; donor D3): 1.67 | IL-4 level (Human whole blood; donor D4): 0.09 | IL-5 level (Human whole blood; donor D4): BDL | IFN-γ level, D4 (Human whole blood; donor D4): 11.71 | IL-6 level, D4 (Human whole blood; donor D4): 0.65 | IL-8 level, D4 (Human whole blood; donor D4): 23.29 | TNF-α level, D4 (Human whole blood; donor D4): 0.97 | IL-4 level (Human whole blood; donor D5): BDL | IL-5 level (Human whole blood; donor D5): BDL | IFN-γ level, D5 (Human whole blood; donor D5): 301.71 | IL-6 level, D5 (Human whole blood; donor D5): 8.95 | IL-8 level, D5 (Human whole blood; donor D5): 95.5 | TNF-α level, D5 (Human whole blood; donor D5): 5.88 | IL-4 level (Human whole blood; donor D6): BDL | IL-5 level (Human whole blood; donor D6): BDL | IFN-γ level, D6 (Human whole blood; donor D6): 10.08 | IL-6 level, D6 (Human whole blood; donor D6): 1.06 | IL-8 level, D6 (Human whole blood; donor D6): 28.32 | TNF-α level, D6 (Human whole blood; donor D6): 1.43

— patent publication US20210046160A1 (Synthorx, Inc., priority 2019, published 2021)
